Legend:
[1] = molecular target: T1, native full length untagged APOL1-G0 (iAPOL1-CHO, construct a) (human, UniProt O14791 28-398); experiment: immunofluorescence, PFA-fixed permeabilized iAPOL1-CHO cells
T1 construct: Also used as CHO lysate in western blots; also called iAPOL1-G0; WT iAPOL1-G0
T1 sequence: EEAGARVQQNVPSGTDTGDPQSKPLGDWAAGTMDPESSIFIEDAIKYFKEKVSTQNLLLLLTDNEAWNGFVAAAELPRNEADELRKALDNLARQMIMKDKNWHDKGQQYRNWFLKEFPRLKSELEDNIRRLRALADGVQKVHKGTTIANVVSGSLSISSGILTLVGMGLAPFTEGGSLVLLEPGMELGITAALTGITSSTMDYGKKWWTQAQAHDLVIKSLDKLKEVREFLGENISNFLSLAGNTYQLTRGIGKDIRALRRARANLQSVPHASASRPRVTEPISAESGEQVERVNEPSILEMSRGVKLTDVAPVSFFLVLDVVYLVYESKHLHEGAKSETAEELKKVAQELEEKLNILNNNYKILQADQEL
Text: APOL2 is shown stained with 3.6D12 (a mAb to the N-terminal pore-forming domain (PFD)), although similar results were obtained with the other 43 APOL2-cross reactors (all to the PFD, data not shown). […] APOL1 is shown stained with PFD mAb 3.7D6, membrane-addressing domain (MAD) mAb 3.3A8, or SRA-interacting domain (SRA-ID) mAb 3.1C1, each detected with Alexa488 anti-mouse (see Example 1 below for epitope mapping), although similar results were obtained with all the other APOL1-specific antibodies to all three domains (data not shown). The reticular ER pattern persists in digitonin (plasma membrane only)-permeabilized cells for APOL2, but not APOL1, indicating APOL2 is on the cytoplasmic face of the ER, while APOL1 is inside. The nuclear membrane signal for APOL1 with digitonin is also seen without detergent in some cells since PFA semi-permeabilizes the nuclear membrane (data not shown). With digitonin, some of the more sensitive antibodies, including the PFD (3.7D6) and SRA-ID (3.1C1) antibodies shown here (but not MAD antibody 3.3A8), additionally detected APOL1 on the plasma membrane (arrowhead), which is topologically equivalent to the ER lumen.
Cells were plated on LabTekII (Nalge Nunc 154534) slides and fixed at 70-100% confluency. For mAb screening, cells were fixed/permeabilized for 5 min in −20° C. methanol (EMD MX0485-6). […]

[2] = molecular target: T2, APOL1 very C-terminal peptide aa 376-398 (human); experiment: overlapping ~20-mer peptides (SPR, western blot); antibody named in paragraph 192
T2 peptide: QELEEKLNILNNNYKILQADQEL
Description: Following three TBST washes, anti-mouse (GE Healthcare NA931V, 1:3000) or anti-rabbit HRP (Jackson 711-036-152, 1:8000) was added as secondary antibody. After 1 h, membranes were washed and protein detected using ECL prime (Amersham RPN2232) exposed to MR film (Kodak). Anti-actin HRP-conjugated antibody (clone 13E5, Cell Signaling Technologies 5125S at 1:5000) or calnexin (Abcam Ab22595 at 1:1000) was used as a loading control. For peptide mapping, 2 μl of 1 mM peptides in DMSO were boiled in 5× sample buffer and loaded on 10% Tris-Glycine gel and run using MES buffer. Cell pellets of Sf9 lysates were lysed in native RIPA (NP-40) lysis buffer and run on 10% Tris-Glycine gels.
A 96×96 array-based SPR imaging system (Carterra USA) was used for epitope mapping of anti-ApoL1 monoclonal antibodies. Briefly, purified monoclonal hybridoma antibodies were diluted at 10 μg/ml in 10 mM sodium acetate buffer pH 4.5. Using amine coupling, antibodies were directly immobilized onto a SPR sensorprism CMD 200M chip (XanTec Bioanalytics, Germany) using a Continuous Flow Microspotter (Carterra, USA) to create an array of antibodies. After coupling, the antibodies were blocked with ethanolamine, and primed with running buffer (10 mM HEPES, pH 7.4, 150 mM NaCl, 3 mM EDTA, and 0.005% Tween 20). Epitope mapping was performed by flowing 100 nM of different peptides of APOL1 across the immobilized anti-APOL1 antibodies on the biosensor chip at 25° C. in a running buffer of 10 mM HEPES, pH 7.4, 150 mM NaCl, 3 mM EDTA, and 0.005% Tween 20. After each flow through of the APOL1 peptide, the chip surface was regenerated using 10 mM glycine, pH 2.0.

| Binder | binding result [1] | binding result [2] |
| --- | --- | --- |
| antibody 3.1C1 (antibody, V domains shown, Mouse mAb, cloned as murine IgG2a LALAPG; not written separately; also called SRA-ID mAb 3.1C1) VH: QVQLQQSGPELVKPGASVRISCKASGYTFTNYFIHWVKQRPGQGLEWIGWINPGNLNTKYTEEFKGKATLTADKSSSTAYIQLNSLTSEDSAVYFCVNGNPFVYWGQGTLVTVSA VL: DIVMTQSPSSLTVIAGEKVTLNCKSSQSLLNSGNQKKYLTWLQQKPGQPPKLLIYWTSTRDSGVPDRFTGSGSGTDFTLTISSVQAEDLAVYYCQNDYSYPLTFGAGTKLEIKR | binds |  |
| antibody 4.12E5 (antibody, V domains shown, Mouse mAb, cloned as murine IgG2a LALAPG) VH: EVQLQQSGPELVKTGASVKISCKASGYSFTGYFMHWVKQSHGKSLEWIGYISCYNGASVYNQRFKGKATFTIDTSSSTAYMQFNSLTSEDSAVYYCARDVLRYPRYAVDYWGQGTSVTVSS VL: not shown |  | binds |
